Data taken from article PMC12338864, “Modifications in FLAP's second cytosolic loop influence 5‐LOX interaction, inhibitor binding, and leukotriene formation” (Febs Letters, 2025).
Where a chain is given by its changes, count along the chain named.

Columns and labels:
FLAP(S108Δ) (human) = target: T1, FLAP(S108Δ) (human) (UniProt P20292)
T1 sequence: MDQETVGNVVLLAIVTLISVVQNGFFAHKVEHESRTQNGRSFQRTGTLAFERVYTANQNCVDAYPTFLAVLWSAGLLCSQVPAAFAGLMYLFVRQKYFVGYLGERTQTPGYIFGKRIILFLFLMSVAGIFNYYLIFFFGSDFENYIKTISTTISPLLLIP

FLAP(S108D) = target: T2, FLAP(S108D) (human, UniProt P20292 1-161, S108D); assay: cell-based or functional assay
T2 sequence (looked up): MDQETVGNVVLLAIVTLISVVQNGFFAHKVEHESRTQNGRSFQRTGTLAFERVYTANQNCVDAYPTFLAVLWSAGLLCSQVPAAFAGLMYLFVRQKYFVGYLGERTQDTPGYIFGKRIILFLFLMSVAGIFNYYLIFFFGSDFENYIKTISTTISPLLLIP

FLAP(T109C) = target: T3, FLAP(T109C) (human, UniProt P20292 1-161, T109C); assay: cell-based or functional assay
T3 sequence (looked up): T2 sequence (looked up) with D108S, T109C

FLAP(S41D) = target: T4, FLAP(S41D) (human, UniProt P20292 1-161, S41D); assay: cell-based or functional assay
T4 sequence (looked up): T2 sequence (looked up) with S41D, D108S

B1: 5-lipoxygenase (enzyme, human, UniProt P09917 1-674, looked up)
chain: MPSYTVTVATGSQWFAGTDDYIYLSLVGSAGCSEKHLLDKPFYNDFERGAVDSYDVTVDEELGEIQLVRIEKRKYWLNDDWYLKYITLKTPHGDYIEFPCYRWITGDVEVVLRDGRAKLARDDQIHILKQHRRKELETRQKQYRWMEWNPGFPLSIDAKCHKDLPRDIQFDSEKGVDFVLNYSKAMENLFINRFMHMFQSSWNDFADFEKIFVKISNTISERVMNHWQEDLMFGYQFLNGCNPVLIRRCTELPEKLPVTTEMVECSLERQLSLEQEVQQGNIFIVDFELLDGIDANKTDPCTLQFLAAPICLLYKNLANKIVPIAIQLNQIPGDENPIFLPSDAKYDWLLAKIWVRSSDFHVHQTITHLLRTHLVSEVFGIAMYRQLPAVHPIFKLLVAHVRFTIAINTKAREQLICECGLFDKANATGGGGHVQMVQRAMKDLTYASLCFPEAIKARGMESKEDIPYYFYRDDGLLVWEAIRTFTAEVVDIYYEGDQVVEEDPELQDFVNDVYVYGMRGRKSSGFPKSVKSREQLSEYLTVVIFTASAQHAAVNFGQYDWCSWIPNAPPTMRAPPPTAKGVVTIEQIVDTLPDRGRSCWHLGAVWALSQFQENELFLGMYPEEHFIEKPVKEAMARFRKNLEAIVSVIAERNKKKQLPYYYLSPDRIPNSVAI
Question: B1 was tested. Which ratio of 5‐H(P)ETE to trans‐isomers of LTB4 formed in HEK293 cells co-expressing 5-LOX and the FLAP mutant (2.5 μM A23187 plus 2 μM AA, vehicle); wildtype about 1.2 (FLAP(S108Δ) (human)) did it give?
Answer: 3.2

Question: What about the “ratio of 5‐H(P)ETE to trans‐isomers of LTB4 formed in HEK293 cells co-expressing 5-LOX and the FLAP mutant (2.5 μM A23187 plus 2 μM AA, vehicle); wildtype about 1.2” value (“ratio of 5‐H(P)ETE” below) (FLAP(S108D)) of the same binder?
Answer: 2

Question: And the “ratio of 5‐H(P)ETE” value (FLAP(T109C))?
Answer: 2.6

Question: What about the “ratio of 5‐H(P)ETE” value (FLAP(S41D)) of the same binder?
Answer: 2.3
